Assay results taken from US20250049894A1, “TREATMENT OF NUDT2 MUTATION” (UNIVERSITÉ DE GENÈVE, priority 2021, published 2025).

B1: NUDT2: recombinant full-length human NUDT2, Nudix hydrolase for Ap4A (protein)
chain: ALRACGLIIFRRHLIPKMDNSTIEFLLLQASDGIHHWTPPKGHVDPGENDLETALRETREETGIEASQLTIIEGFRRELNYVARQKPKTVIYWLAEVKDYNVEIRLSQEHQAYRWLGLEEACQLAQFKEMKATLQEGHQFLCSTPA
B2: nuclease P1: nuclease used to hydrolyze RNAs prior to mass spectrometry (protein, UniProt P24289 1-270, looked up)
Nuclease P1: WGALGHATVAYVAQHYVSPEAASWAQGILGSSSSSYLASIASWADEYRLTSAGKWSASLHFIDAEDNPPTNCNVDYERDCGSSGCSISAIANYTQRVSDSSLSSENHAEALRFLVHFIGDMTQPLHDEAYAVGGNKINVTFDGYHDNLHSDWDTYMPQKLIGGHALSDAESWAKTLVQNIESGNYTAQAIGWIKGDNISEPITTATRWASDANALVCTVVMPHGAAALQTGDLYPTYYDSVIDTIELQIAKGGYRLANWINEIHGSEIAK
B3: NUDT12: recombinant untagged full-length human NUDT12 (protein, UniProt Q9BQG2 1-462, looked up)
chain: MSSVKRSLKQEIVTQFHCSAAEGDIAKLTGILSHSPSLLNETSENGWTALMYAARNGHPEIVQFLLEKGCDRSIVNKSRQTALDIAVFWGYKHIANLLATAKGGKKPWFLTNEVEECENYFSKTLLDRKSEKRNNSDWLLAKESHPATVFILFSDLNPLVTLGGNKESFQQPEVRLCQLNYTDIKDYLAQPEKITLIFLGVELEIKDKLLNYAGEVPREEEDGLVAWFALGIDPIAAEEFKQRHENCYFLHPPMPALLQLKEKEAGVVAQARSVLAWHSRYKFCPTCGNATKIEEGGYKRLCLKEDCPSLNGVHNTSYPRVDPVVIMQVIHPDGTKCLLGRQKRFPPGMFTCLAGFIEPGETIEDAVRREVEEESGVKVGHVQYVACQPWPMPSSLMIGCLALAVSTEIKVDKNEIEDARWFTREQVLDVLTKGKQQAFFVPPSRAIAHQLIKHWIRINPNL
modifications: full-length
B4: 6×His-SUMO-tagged human NUDT2: recombinant full-length human NUDT2 with the larger 6×-His-SUMO tag (protein, UniProt P50583 1-147, looked up)
chain: MALRACGLIIFRRCLIPKVDNNAIEFLLLQASDGIHHWTPPKGHVEPGEDDLETALRETQEEAGIEAGQLTIIEGFKRELNYVARNKPKTVIYWLAEVKDYDVEIRLSHEHQAYRWLGLEEACQLAQFKEMKAALQEGHQFLCSIEA
modifications: full-length 6xHis-SUMO tag
notes: recombinant full-length human NUDT2 with the larger 6×-His-SUMO tag

Columns and labels:
Type in all cases: biochemical
[1] = Ap4A hydrolysis assay (32P-labelled Ap4A, thin-layer chromatography); settings: 750 nM recombinant human NUDT2 or Nuclease P1 0.5 and 1 unit, TLC
Experimental: To prepare radioactive Ap4A, we incubated 60 μCi of radioactive α-^32P-ATP (Perkin Elmer, Cat. no. BLU003X250UC; 75 fmol in 20 ul or 3.75 nM concentration) with 1 μM recombinant human Lys-tRNA synthetase (G540Y mutant) at 37° C. overnight in a 20 μl solution [100 mM Tris-HCl, pH 8.0, 10 mM MgCl2, 0.1 mM ZnCl2, 1 mM Lysine and 0.1 units inorganic pyrophosphatase (Sigma-Aldrich, Cat. no. I1643)].
We resolved the reaction products using thin-layer chromatography, using PEI-cellulose TLC plates (Merk, Cat. No. 1057250001) and developing it in 0.45 M (NH4)2SO4 using a glass chamber at room temperature. In addition to the ATP already present in the reaction, we see the presence of Ap4A (FIG. 9D). From this Ap4A mix (ATP and Ap4A), we obtained purified radioactive Ap4A (FIG. 9E) by HPLC (purification service kindly provided by Hartmann Analytic, Germany). For some experiments (FIG. 9F-G) we used this Ap4A mix (ATP and Ap4A). However, for most experiments (FIG. 2, FIG. 9E) the purified radioactive Ap4A was used.
For hydrolysis assays with Ap4A (AppppA, in bold is 32P), reactions were conducted as above, but the RNA was replaced with appropriate amount of HPLC-purified Ap4A. Hydrolysis assays were conducted with 750 nM of recombinant human NUDT2 or with Nuclease P1 (0.5 unit and 1 unit). NUDT2 hydrolyzes Ap4A (AppppA, in bold is 32P) into α-^32P-AMP and α-^32P-ATP (FIG. 2D).

[2] = system: m^7G-RNA; assay: In vitro m7G-RNA decapping assay (cap-labelled RNA, thin-layer chromatography); settings: recombinant protein 250 nM to 750 nM, 37° C., 30 min, TLC
[3] = system: Ap4A-RNA; assay: In vitro Ap4A-RNA decapping assay (cap-labelled RNA, thin-layer chromatography); settings: recombinant protein 250 nM to 750 nM, 37° C., 30 min, TLC
Experimental: Briefly, using the Ap4A mixture (ATP and Ap4A) or Ap4A instead of ATP for in vitro transcription by MEGAshortscript™ T7 Transcription Kit (Life technologies; Cat. No. AM1354), we produced a 50 nt RNA. Template is the same as making 50 nt RNA for MEFs transfection. Note that if the mixture is used, this nucleotide mixture (ATP and Ap4A) still has all the components (lysine, inorganic pyrophosphatase etc) added during the Ap4A synthesis. In vitro transcription reaction was carried out at 37° C. for at least 4 h in a 20 μL reaction containing 6 pmol DNA template, 2 μL 10× reaction buffer, 2 μL of nucleotides (75 mM CTP, 75 mM UTP, 75 mM GTP), 2 μL of ATP/Ap4A mixture that we produced above, and 2 μL T7 enzyme mix (MEGAshortscript™ Kit, Life technologies, Cat. No. AM1354). After that, 1 μL TURBO DNase was added and incubated at 37° C. for 15 min to remove the DNA template. Unincorporated nucleotides were removed from the RNA preparation by Microspin G-25 Column (GE Healthcare, Cat. No. 27-5325-01), and the process was repeated twice. The radioactively labelled RNA was separated by 10% urea gel. […]
Decapping reaction products were resolved by PEI-cellulose TLC plates (Merk, Cat. No. 1057250001) and developed in 0.45 M (NH4)2SO4 in a glass chamber at room temperature. […] When required, signals were quantified by ImageQuantTL.

Molecule	Hydrolysis of Ap4A [1]	m7G-RNA decapping activity [2]	Ap4A-RNA decapping activity [3]
B1	mostly asymmetrically hydrolyzed into ATP (Appp) and AMP (pA)	can decap m^7G-RNAs	only NUDT2 has Ap4A-RNA decapping activity
B2	able to efficiently hydrolyse Ap4A		
B3			only NUDT2 has Ap4A-RNA decapping activity
B4		poorly active	
